Source: patent US11833164B2, “Methods of treating Fabry disease in patients having a mutation in the GLA gene” (Amicus Therapeutics, Inc., priority 2019, dated 2023)
Changes are numbered by the printed parent chain. Names may count otherwise.

B1: K374I (protein)
chain: MQLRNPELHLGCALALRFLALVSWDIPGARALDNGLARTPTMGWLHWERFMCNLDCQEEPDSCISEKLFMEMAELMVSEGWKDAGYEYLCIDDCWMAPQRDSEGRLQADPQRFPHGIRQLANYVHSKGLKLGIYADVGNKTCAGFPGSFGYYDIDAQTFADWGVDLLKFDGCYCDSLENLADGYKHMSLALNRTGRSIVYSCEWPLYMWPFQKPNYTEIRQYCNHWRNFADIDDSWKSIKSILDWTSFNQERIVDVAGPGGWNDPDMLVIGNFGLSWNQQVTQMALWAIMAAPLFMSNDLRHISPQAKALLQDKDVIAINQDPLGKQGYQLRQGDNFEVWERPLSGLAWAVAMINRQEIGGPRSYTIAVASLGIGVACNPACFITQLLPVKRKLGFYEWTSRLRSHINPTGTVLLQLENTMQMSLKDLL
B2: V376M (protein)
chain: B1 chain with I374K, V376M
B3: G375R (protein)
chain: B1 chain with I374K, G375R
B4: V376E (protein)
chain: B1 chain with I374K, V376E
B5: K374T (protein)
chain: B1 chain with I374T
B6: V376G (protein)
chain: B1 chain with I374K, V376G
B7: V376L (protein)
chain: B1 chain with I374K, V376L
B8: A377G (protein)
chain: B1 chain with I374K, A377G
B9: A377P (protein)
chain: B1 chain with I374K, A377P
B10: A377S (protein)
chain: B1 chain with I374K, A377S
B11: K374R (protein)
chain: B1 chain with I374R

How the values were obtained:
[1] = tested on: mutant form of α-Gal A expressed in HEK-293 cells; assay: HEK assay (GLP HEK / Migalastat Amenability Assay): α-Gal A activity in lysates of transiently transfected HEK-293 cells incubated with or without 10 μM migalastat; type: cell-based, human; conditions: for Absolute increase (% WT) / Relative increase: 10 μM migalastat versus baseline; for Baseline α-Gal A activity (% WT): absence of migalastat; for Baseline α-Gal A activity (% WT) / 10 μM migalastat α-Gal A activity (% WT): percentage of baseline wild-type α-Gal A activity; for Baseline α-Gal A activity (% WT) / Baseline α-Gal A activity / 10 μM migalastat α-Gal A activity / 10 μM migalastat α-Gal A activity (% WT): mean ± SEM; for Baseline α-Gal A activity / 10 μM migalastat α-Gal A activity: lysates of HEK-293 cells transiently transfected with the mutant form; for Baseline α-Gal A activity: incubated 5 days in absence of migalastat; for 10 μM migalastat α-Gal A activity: incubated 5 days with 10 μM migalastat; for 10 μM migalastat α-Gal A activity (% WT): with 10 μM migalastat
In short: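 Activity reported as 4-MU released (nmol/mg/hr), mean±SEM, from lysates of transiently transfected HEK-293 cells expressing mutant α-Gal A, cultured with or without 10 μM migalastat.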

[2] = tested on: active site of wild-type α-Gal A and specific mutant forms of α-Gal A; conditions: selective and reversible binding; cited from earlier work

Molecule | in vitro response to incubation with migalastat (amenability criteria) ([1]; novel α-Gal A mutations listed in Table 2, HEK-293 lysates, 10 μM migalastat, 5 days) | binding to the active site of α-Gal A [2] | Absolute increase (% WT) [1] [% WT] | Relative increase [1] | Baseline α-Gal A activity (% WT) [1] [% WT] | Baseline α-Gal A activity [1] [nmol/mg/h] | 10 μM migalastat α-Gal A activity [1] [nmol/mg/h] | 10 μM migalastat α-Gal A activity (% WT) ([1]; 5 days)
OC[C@H]1NC[C@H](O)[C@@H](O)[C@H]1O [migalastat, (2R,3S,4R,5S)-2-(hydroxymethyl) piperdine-3,4,5-triol, reference compound] | met amenability criteria | high affinity | – | – | – | – | – | –
B1 | – | – | 21.9 | 2.0 | 22.3 ± 1.3 | 8194 ± 506 | 16076 ± 936 | 44.2 ± 2.9
B2 | – | – | 20.1 | 1.3 | 79.3 ± 2.7 | 27547 ± 1431 | 34563 ± 1762 | 99.4 ± 3.2
B3 | – | – | 18.7 | 1.4 | 41.7 ± 1.9 | 15302 ± 1157 | 22033 ± 1442 | 60.4 ± 2.1
B4 | – | – | 21.9 | 1.4 | 74 ± 4.6 | 22992 ± 924 | 30929 ± 1635 | 95.9 ± 3.8
B5 | – | – | 30.2 | 1.6 | 46.1 ± 2.8 | 16418 ± 1050 | 26614 ± 1659 | 76.2 ± 5.7
B6 | – | – | 28.9 | 1.3 | 93.9 ± 4.6 | 33903 ± 2255 | 44774 ± 2982 | 122.9 ± 5.6
B7 | – | – | 19.9 | 1.3 | 82.4 ± 3.4 | 27275 ± 1181 | 34152 ± 1845 | 102.3 ± 4.2
B8 | – | – | 16.1 | 1.2 | 71.6 ± 2.5 | 26583 ± 1072 | 32517 ± 981 | 87.7 ± 2.3
B9 | – | – | 17.2 | 1.3 | 59.4 ± 2.6 | 21842 ± 930 | 28189 ± 1292 | 76.6 ± 3.5
B10 | – | – | 13.7 | 1.3 | 48.1 ± 2.3 | 17737 ± 860 | 22793 ± 999 | 61.8 ± 2.7
B11 | – | – | 17.9 | 1.2 | 74.3 ± 4.8 | 27984 ± 2321 | 34403 ± 2426 | 92.2 ± 4.9
